Laboratory results reported in US20050037969A1 (ARBOR VITA, published 2005).
Ends that are not written are not given here. * marks the point of attachment. Biotin = O=C1N[C@H]2[C@H](CS[C@H]2CCCCC(=O)*)N1

T1: GST-PTN-4 PDZ domain fusion protein (Homo sapiens (Human), UniProt P29074 517-605)
T1 construct: also called protein-tyrosine phosphatase meg1; not shown: glutathione S-transferase encoded by vector pGEX-3X (Pharmacia)
T1 sequence: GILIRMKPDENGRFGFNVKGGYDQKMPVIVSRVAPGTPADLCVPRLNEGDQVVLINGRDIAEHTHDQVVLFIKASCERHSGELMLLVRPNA

T2: GST-TAX-IP43 PDZ domain fusion protein (human, UniProt Q13884 109-180)
T2 construct: also called TAX43; not shown: glutathione S-transferase encoded by vector pGEX-3X (Pharmacia)
T2 sequence: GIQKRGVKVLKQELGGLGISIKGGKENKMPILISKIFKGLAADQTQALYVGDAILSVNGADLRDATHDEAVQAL

T3: GST-DVL1 PDZ domain fusion protein (human, UniProt O14640 247-339)
T3 construct: also called human dishevelled segment polarity protein homolog; not shown: glutathione S-transferase encoded by vector pGEX-3X (Pharmacia)
T3 sequence: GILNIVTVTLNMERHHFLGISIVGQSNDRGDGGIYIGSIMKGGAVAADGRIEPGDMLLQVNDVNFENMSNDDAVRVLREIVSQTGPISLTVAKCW

T4: GST-TAX-IP2 PDZ domain fusion protein (human, UniProt O14908 129-216)
T4 construct: also called TAX-1P2; TAX2; not shown: glutathione S-transferase encoded by vector pGEX-3X (Pharmacia)
T4 chain: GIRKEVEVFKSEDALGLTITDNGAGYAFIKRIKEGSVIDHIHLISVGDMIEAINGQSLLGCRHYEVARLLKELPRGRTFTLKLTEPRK

T5: GST-prIL16 fusion protein (PDZ domains 1-2) (Homo sapiens (Human), UniProt Q14005 1111-1324)
T5 construct: also called putative interleukin 16 precursor; not shown: glutathione S-transferase encoded by vector pGEX-3X (Pharmacia)
T5 sequence: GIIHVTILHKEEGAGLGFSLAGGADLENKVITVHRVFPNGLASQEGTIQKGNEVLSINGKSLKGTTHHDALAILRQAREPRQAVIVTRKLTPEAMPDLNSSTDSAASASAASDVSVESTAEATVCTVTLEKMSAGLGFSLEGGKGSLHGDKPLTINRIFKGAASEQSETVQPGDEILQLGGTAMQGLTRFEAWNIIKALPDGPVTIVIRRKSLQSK

T6: GST-PDZK1 fusion protein (PDZ domains 2-4) (Homo sapiens, UniProt Q5T2W1 134-457)
T6 construct: not shown: glutathione S-transferase encoded by vector pGEX-3X (Pharmacia)
T6 sequence: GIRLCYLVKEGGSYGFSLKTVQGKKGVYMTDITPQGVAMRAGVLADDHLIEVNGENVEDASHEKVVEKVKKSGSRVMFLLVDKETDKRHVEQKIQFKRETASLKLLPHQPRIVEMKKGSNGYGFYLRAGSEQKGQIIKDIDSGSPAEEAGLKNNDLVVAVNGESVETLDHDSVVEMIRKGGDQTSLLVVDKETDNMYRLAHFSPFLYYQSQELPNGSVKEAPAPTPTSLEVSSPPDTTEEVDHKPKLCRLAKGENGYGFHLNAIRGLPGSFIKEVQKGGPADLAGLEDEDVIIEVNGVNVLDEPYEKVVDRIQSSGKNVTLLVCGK

T7: SP short PDZ-GST fusion protein (Homo sapiens (Human), UniProt O43464 350-435)
T7 construct: The label SP short is not explained in the excerpts
T7 sequence: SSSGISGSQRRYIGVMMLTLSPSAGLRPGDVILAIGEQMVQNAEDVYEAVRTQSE

T8: GST-mouse syntenin fusion protein (Mus musculus, UniProt O08992 108-286)
T8 construct: also called Mus musculus Syntenin; not shown: glutathione S-transferase encoded by vector pGEX-3X (Pharmacia)
T8 chain: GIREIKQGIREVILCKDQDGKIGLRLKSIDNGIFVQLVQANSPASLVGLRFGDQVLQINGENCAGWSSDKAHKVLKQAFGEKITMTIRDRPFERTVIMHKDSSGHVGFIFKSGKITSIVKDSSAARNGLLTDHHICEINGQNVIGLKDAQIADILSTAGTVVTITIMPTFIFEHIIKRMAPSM

T9: K559 PDZ-GST fusion protein (Homo sapiens (Human), UniProt Q9Y6V0 4489-4593)
T9 construct: Order of GST and PDZ part and limits not seen in the excerpts
T9 sequence: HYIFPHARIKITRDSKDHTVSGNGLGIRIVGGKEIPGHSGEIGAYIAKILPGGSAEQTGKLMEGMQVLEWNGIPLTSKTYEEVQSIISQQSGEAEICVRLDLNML

T10: TAX-IP33 PDZ-GST fusion protein (Homo sapiens (Human), UniProt O14910 103-193)
T10 construct: Order of GST and PDZ part and limits not seen in the excerpts
T10 sequence: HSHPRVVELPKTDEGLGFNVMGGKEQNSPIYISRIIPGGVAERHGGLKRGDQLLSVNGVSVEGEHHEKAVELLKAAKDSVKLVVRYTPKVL

T11: GST-MPP1 PDZ domain fusion protein (Homo sapiens (Human), UniProt Q00013 67-152)
T11 construct: also called p55; 55 Kd erythrocyte membrane protein; not shown: glutathione S-transferase encoded by vector pGEX-3X (Pharmacia)
T11 sequence: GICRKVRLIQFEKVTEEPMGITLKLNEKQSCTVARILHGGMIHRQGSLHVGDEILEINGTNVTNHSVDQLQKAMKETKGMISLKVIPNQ

B1: CC CKR-2 C-terminal peptide AA42L (peptide)
peptide: Biotin-GKGKSIGRAPEASLQDKEGA
notes: Only the last four residues are seen in the excerpts
B2: CC CKR-4 C-terminal peptide AA44L (peptide)
peptide: Biotin-DTPSSSYTQSTMDHDLHDAL
notes: as for B1
B3: CC CKR-1R C-terminal peptide AA41L (peptide)
peptide: Biotin-LERVSSTSPSTGEHELSAGF
notes: as for B1

Each binder was assayed against T1, GST-PTN-4 PDZ domain fusion protein (assay: A/G assays).

Binding result, no binding:
Biotin-SPQPDSTDNDDYDDISAA [CD6 C-terminal peptide AA6L, biotinylated]
B1
B2
Biotin-ARHRVTSYTSSSVNVSSNL [CDW128A (IL8RA) C-terminal peptide AA29.1L, biotinylated]
B3
Biotin-TSGTGHNQTRALRASESGI (also called CD97 (CD55L)) [CD97 C-terminal peptide AA14L, biotinylated]

These binders were tested against T12, K316 PDZ-GST fusion protein (Homo sapiens (Human), UniProt Q14CM0 72-159) (assay: A/G assays).
T12 construct: Order of GST and PDZ part and limits not seen in the excerpts
T12 sequence (Q14CM0 72-159 limits assumed): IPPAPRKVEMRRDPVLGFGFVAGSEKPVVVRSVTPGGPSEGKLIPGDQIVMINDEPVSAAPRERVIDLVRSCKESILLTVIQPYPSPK

Binding result, no binding:
Biotin-SPQPDSTDNDDYDDISAA [CD6 C-terminal peptide AA6L, biotinylated]
B1
B2
Biotin-ARHRVTSYTSSSVNVSSNL [CDW128A (IL8RA) C-terminal peptide AA29.1L, biotinylated]
B3
Biotin-TSGTGHNQTRALRASESGI (also called CD97 (CD55L)) [CD97 C-terminal peptide AA14L, biotinylated]

What follows are binders tested against T2, GST-TAX-IP43 PDZ domain fusion protein (assay: A/G assays).

Binding result, no binding:
Biotin-SPQPDSTDNDDYDDISAA [CD6 C-terminal peptide AA6L, biotinylated]
B1
B2
Biotin-ARHRVTSYTSSSVNVSSNL [CDW128A (IL8RA) C-terminal peptide AA29.1L, biotinylated]
B3
Biotin-TSGTGHNQTRALRASESGI (also called CD97 (CD55L)) [CD97 C-terminal peptide AA14L, biotinylated]

These binders were tested against T13, PICK1 PDZ-GST fusion protein (Bos taurus (Bovine), UniProt Q2T9M1 17-105) (assay: A/G assays).
T13 construct: Order of GST and PDZ part and limits not seen in the excerpts
T13 sequence (Q2T9M1 other isoform, or with tags, fused parts or gaps limits assumed): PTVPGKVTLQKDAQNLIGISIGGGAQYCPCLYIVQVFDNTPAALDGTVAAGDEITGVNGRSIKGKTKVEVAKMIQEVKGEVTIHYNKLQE

Binding result, no binding:
Biotin-SPQPDSTDNDDYDDISAA [CD6 C-terminal peptide AA6L, biotinylated]
B1
B2
Biotin-ARHRVTSYTSSSVNVSSNL [CDW128A (IL8RA) C-terminal peptide AA29.1L, biotinylated]
B3
Biotin-TSGTGHNQTRALRASESGI (also called CD97 (CD55L)) [CD97 C-terminal peptide AA14L, biotinylated]

Each binder was assayed against T3, GST-DVL1 PDZ domain fusion protein (assay: A/G assays).

Binding result, no binding:
Biotin-SPQPDSTDNDDYDDISAA [CD6 C-terminal peptide AA6L, biotinylated]
B1
B2
Biotin-ARHRVTSYTSSSVNVSSNL [CDW128A (IL8RA) C-terminal peptide AA29.1L, biotinylated]
B3
Biotin-TSGTGHNQTRALRASESGI (also called CD97 (CD55L)) [CD97 C-terminal peptide AA14L, biotinylated]

Target: T4, GST-TAX-IP2 PDZ domain fusion protein
Assay: A/G assays

Binding result, no binding:
Biotin-SPQPDSTDNDDYDDISAA [CD6 C-terminal peptide AA6L, biotinylated]
B1
B2
Biotin-ARHRVTSYTSSSVNVSSNL [CDW128A (IL8RA) C-terminal peptide AA29.1L, biotinylated]
B3
Biotin-TSGTGHNQTRALRASESGI (also called CD97 (CD55L)) [CD97 C-terminal peptide AA14L, biotinylated]

Each binder was assayed against T5, GST-prIL16 fusion protein (PDZ domains …) (assay: A/G assays).

Binding result, no binding:
Biotin-SPQPDSTDNDDYDDISAA [CD6 C-terminal peptide AA6L, biotinylated]
B1
B2
Biotin-ARHRVTSYTSSSVNVSSNL [CDW128A (IL8RA) C-terminal peptide AA29.1L, biotinylated]
B3
Biotin-TSGTGHNQTRALRASESGI (also called CD97 (CD55L)) [CD97 C-terminal peptide AA14L, biotinylated]

What follows are binders tested against T6, GST-PDZK1 fusion protein (PDZ domains …) (assay: A/G assays).

Binding result, no binding:
Biotin-SPQPDSTDNDDYDDISAA [CD6 C-terminal peptide AA6L, biotinylated]
B1
B2
Biotin-ARHRVTSYTSSSVNVSSNL [CDW128A (IL8RA) C-terminal peptide AA29.1L, biotinylated]
B3
Biotin-TSGTGHNQTRALRASESGI (also called CD97 (CD55L)) [CD97 C-terminal peptide AA14L, biotinylated]

The binders below were run against T7, SP short PDZ-GST fusion protein (assay: A/G assays).

Binding result, no binding:
Biotin-SPQPDSTDNDDYDDISAA [CD6 C-terminal peptide AA6L, biotinylated]
B1
B2
Biotin-ARHRVTSYTSSSVNVSSNL [CDW128A (IL8RA) C-terminal peptide AA29.1L, biotinylated]
B3
Biotin-TSGTGHNQTRALRASESGI (also called CD97 (CD55L)) [CD97 C-terminal peptide AA14L, biotinylated]

Target: T8, GST-mouse syntenin fusion protein
Assay: A/G assays

Binding result, no binding:
Biotin-SPQPDSTDNDDYDDISAA [CD6 C-terminal peptide AA6L, biotinylated]
B1
B2
Biotin-ARHRVTSYTSSSVNVSSNL [CDW128A (IL8RA) C-terminal peptide AA29.1L, biotinylated]
B3
Biotin-TSGTGHNQTRALRASESGI (also called CD97 (CD55L)) [CD97 C-terminal peptide AA14L, biotinylated]

Each binder was assayed against T14, GST-TIAM1 PDZ domain fusion protein (Homo sapiens (Human), UniProt Q13009 845-931) (assay: A/G assays).
T14 construct: also called TLAM1; T-lymphoma invasion and metastasis inducing protein 1; not shown: glutathione S-transferase encoded by vector pGEX-3X (Pharmacia)
T14 sequence (Q13009 other isoform, or with tags, fused parts or gaps): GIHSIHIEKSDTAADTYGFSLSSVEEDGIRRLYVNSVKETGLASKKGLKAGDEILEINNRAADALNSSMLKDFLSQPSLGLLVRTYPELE

Binding result, no binding:
Biotin-SPQPDSTDNDDYDDISAA [CD6 C-terminal peptide AA6L, biotinylated]
B1
B2
Biotin-ARHRVTSYTSSSVNVSSNL [CDW128A (IL8RA) C-terminal peptide AA29.1L, biotinylated]
B3
Biotin-TSGTGHNQTRALRASESGI (also called CD97 (CD55L)) [CD97 C-terminal peptide AA14L, biotinylated]

Each binder was assayed against T9, K559 PDZ-GST fusion protein (assay: A/G assays).

Binding result, no binding:
Biotin-SPQPDSTDNDDYDDISAA [CD6 C-terminal peptide AA6L, biotinylated]
B1
B2
Biotin-ARHRVTSYTSSSVNVSSNL [CDW128A (IL8RA) C-terminal peptide AA29.1L, biotinylated]
B3
Biotin-TSGTGHNQTRALRASESGI (also called CD97 (CD55L)) [CD97 C-terminal peptide AA14L, biotinylated]

These binders were tested against T10, TAX-IP33 PDZ-GST fusion protein (assay: A/G assays).

Binding result, no binding:
Biotin-SPQPDSTDNDDYDDISAA [CD6 C-terminal peptide AA6L, biotinylated]
B1
B2
Biotin-ARHRVTSYTSSSVNVSSNL [CDW128A (IL8RA) C-terminal peptide AA29.1L, biotinylated]
B3
Biotin-TSGTGHNQTRALRASESGI (also called CD97 (CD55L)) [CD97 C-terminal peptide AA14L, biotinylated]

What follows are binders tested against T11, GST-MPP1 PDZ domain fusion protein (assay: A/G assays).

Binding result, no binding:
Biotin-SPQPDSTDNDDYDDISAA [CD6 C-terminal peptide AA6L, biotinylated]
B1
B2
Biotin-ARHRVTSYTSSSVNVSSNL [CDW128A (IL8RA) C-terminal peptide AA29.1L, biotinylated]
B3
Biotin-TSGTGHNQTRALRASESGI (also called CD97 (CD55L)) [CD97 C-terminal peptide AA14L, biotinylated]

What follows are binders tested against T15, NOS1 PDZ-GST fusion protein (Homo sapiens (Human), UniProt P29475 11-100) (assay: A/G assays).
T15 construct: Order of GST and PDZ part and limits not seen in the excerpts
T15 sequence (P29475 11-100 limits assumed): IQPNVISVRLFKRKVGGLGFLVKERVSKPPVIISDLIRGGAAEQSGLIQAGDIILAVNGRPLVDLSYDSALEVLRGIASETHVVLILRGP

Binding result, no binding:
Biotin-SPQPDSTDNDDYDDISAA [CD6 C-terminal peptide AA6L, biotinylated]
B1
B2
Biotin-ARHRVTSYTSSSVNVSSNL [CDW128A (IL8RA) C-terminal peptide AA29.1L, biotinylated]
B3
Biotin-TSGTGHNQTRALRASESGI (also called CD97 (CD55L)) [CD97 C-terminal peptide AA14L, biotinylated]
